Test results from US20240287484.

Assays:
Details in all cases: qPCR; 3 mM MgCl2, 37 C
[1] = tested on: T1, MG153-32 RT (uncultivated organism (metagenomic))
T1 sequence: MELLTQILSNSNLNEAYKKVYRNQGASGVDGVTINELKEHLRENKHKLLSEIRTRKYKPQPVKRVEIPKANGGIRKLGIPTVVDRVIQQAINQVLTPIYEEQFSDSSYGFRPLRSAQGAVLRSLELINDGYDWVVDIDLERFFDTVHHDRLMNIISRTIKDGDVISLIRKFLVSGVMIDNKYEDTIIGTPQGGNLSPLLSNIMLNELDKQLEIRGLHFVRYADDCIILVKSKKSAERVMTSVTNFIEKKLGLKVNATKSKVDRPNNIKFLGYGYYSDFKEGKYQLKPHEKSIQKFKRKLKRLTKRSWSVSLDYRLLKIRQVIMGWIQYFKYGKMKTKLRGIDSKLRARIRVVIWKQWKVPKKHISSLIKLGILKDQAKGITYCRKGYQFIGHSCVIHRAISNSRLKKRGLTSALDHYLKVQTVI

[2] = tested on: T2, MG153-40 RT (uncultivated organism (metagenomic))
T2 sequence: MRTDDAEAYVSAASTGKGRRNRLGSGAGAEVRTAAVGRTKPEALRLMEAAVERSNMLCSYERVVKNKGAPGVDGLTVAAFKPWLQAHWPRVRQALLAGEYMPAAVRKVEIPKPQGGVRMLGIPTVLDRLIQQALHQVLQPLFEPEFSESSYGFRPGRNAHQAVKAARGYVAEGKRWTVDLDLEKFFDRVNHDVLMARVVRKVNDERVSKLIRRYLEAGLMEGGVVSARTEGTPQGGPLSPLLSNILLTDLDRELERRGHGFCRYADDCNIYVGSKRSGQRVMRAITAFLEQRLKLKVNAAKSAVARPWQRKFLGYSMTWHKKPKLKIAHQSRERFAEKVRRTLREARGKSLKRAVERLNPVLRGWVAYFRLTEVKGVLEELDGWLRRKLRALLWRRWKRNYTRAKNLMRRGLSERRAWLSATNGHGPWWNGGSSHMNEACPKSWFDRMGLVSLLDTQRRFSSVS

[3] = tested on: T3, MG153-28 RT (uncultivated organism (metagenomic))
T3 sequence: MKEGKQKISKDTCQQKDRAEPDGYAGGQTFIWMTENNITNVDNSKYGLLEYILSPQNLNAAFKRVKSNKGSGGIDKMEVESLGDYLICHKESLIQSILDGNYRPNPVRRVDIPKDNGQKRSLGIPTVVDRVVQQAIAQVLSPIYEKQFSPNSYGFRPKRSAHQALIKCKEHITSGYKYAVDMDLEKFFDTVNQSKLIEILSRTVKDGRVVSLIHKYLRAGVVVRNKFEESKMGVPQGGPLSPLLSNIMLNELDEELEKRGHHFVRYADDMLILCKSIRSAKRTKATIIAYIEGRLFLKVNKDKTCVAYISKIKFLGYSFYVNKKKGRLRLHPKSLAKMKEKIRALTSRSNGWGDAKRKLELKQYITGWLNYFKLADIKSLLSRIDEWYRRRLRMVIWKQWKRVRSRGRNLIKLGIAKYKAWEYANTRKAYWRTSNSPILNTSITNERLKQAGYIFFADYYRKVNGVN

[4] = tested on: T4, MG153-11 RT (uncultivated organism (metagenomic))
T4 sequence: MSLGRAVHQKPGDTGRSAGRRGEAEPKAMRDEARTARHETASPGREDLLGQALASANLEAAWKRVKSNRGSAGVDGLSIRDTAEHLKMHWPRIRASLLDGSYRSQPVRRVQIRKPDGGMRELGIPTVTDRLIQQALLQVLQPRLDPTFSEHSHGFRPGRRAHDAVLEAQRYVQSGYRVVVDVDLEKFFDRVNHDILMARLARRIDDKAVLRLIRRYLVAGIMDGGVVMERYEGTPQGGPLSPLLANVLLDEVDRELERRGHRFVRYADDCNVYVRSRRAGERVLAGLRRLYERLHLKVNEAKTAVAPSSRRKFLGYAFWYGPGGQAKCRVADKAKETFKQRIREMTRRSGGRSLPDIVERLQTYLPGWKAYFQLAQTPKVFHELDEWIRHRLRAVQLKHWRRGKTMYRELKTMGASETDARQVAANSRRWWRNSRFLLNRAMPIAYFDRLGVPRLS

[5] = tested on: T5, MG153-19 RT (uncultivated organism (metagenomic))
T5 sequence: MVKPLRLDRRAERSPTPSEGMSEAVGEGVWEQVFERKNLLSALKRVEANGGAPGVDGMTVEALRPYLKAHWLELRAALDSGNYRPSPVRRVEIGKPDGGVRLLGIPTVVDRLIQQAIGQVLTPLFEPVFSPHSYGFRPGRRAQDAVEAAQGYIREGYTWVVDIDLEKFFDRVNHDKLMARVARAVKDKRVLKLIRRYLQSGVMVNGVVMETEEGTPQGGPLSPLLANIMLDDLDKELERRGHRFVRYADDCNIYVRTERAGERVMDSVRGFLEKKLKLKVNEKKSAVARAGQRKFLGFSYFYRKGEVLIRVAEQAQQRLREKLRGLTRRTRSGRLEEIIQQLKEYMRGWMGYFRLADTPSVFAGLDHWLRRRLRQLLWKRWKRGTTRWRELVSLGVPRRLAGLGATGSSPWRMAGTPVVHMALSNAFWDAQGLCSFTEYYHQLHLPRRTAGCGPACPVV

[6] = tested on: T6, MG153-43 RT (uncultivated organism (metagenomic))
T6 sequence: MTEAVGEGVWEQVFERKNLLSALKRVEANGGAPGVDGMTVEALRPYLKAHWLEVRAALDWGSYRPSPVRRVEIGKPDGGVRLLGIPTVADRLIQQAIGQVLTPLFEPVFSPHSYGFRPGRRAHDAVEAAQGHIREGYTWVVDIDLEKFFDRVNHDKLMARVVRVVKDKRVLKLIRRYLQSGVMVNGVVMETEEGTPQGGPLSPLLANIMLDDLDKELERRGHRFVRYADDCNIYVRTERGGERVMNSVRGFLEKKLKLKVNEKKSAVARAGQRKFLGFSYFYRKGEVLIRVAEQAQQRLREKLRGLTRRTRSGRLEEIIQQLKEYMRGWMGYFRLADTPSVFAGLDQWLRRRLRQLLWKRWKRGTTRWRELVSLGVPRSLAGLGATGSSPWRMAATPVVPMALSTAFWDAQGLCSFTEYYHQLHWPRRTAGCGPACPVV

Measured: activity (fold over background)

200 nt RNA template annealed to DNA primer
> 10: all assays above
